Target: Full-length Daxx linked to the Gal4 DNA binding domain (pAS2-1-Daxx) (mouse) (UniProt O35613)
Test: two-hybrid

Sequence of UniProt O35613 (O35613 whole entry, the tested form may be a part): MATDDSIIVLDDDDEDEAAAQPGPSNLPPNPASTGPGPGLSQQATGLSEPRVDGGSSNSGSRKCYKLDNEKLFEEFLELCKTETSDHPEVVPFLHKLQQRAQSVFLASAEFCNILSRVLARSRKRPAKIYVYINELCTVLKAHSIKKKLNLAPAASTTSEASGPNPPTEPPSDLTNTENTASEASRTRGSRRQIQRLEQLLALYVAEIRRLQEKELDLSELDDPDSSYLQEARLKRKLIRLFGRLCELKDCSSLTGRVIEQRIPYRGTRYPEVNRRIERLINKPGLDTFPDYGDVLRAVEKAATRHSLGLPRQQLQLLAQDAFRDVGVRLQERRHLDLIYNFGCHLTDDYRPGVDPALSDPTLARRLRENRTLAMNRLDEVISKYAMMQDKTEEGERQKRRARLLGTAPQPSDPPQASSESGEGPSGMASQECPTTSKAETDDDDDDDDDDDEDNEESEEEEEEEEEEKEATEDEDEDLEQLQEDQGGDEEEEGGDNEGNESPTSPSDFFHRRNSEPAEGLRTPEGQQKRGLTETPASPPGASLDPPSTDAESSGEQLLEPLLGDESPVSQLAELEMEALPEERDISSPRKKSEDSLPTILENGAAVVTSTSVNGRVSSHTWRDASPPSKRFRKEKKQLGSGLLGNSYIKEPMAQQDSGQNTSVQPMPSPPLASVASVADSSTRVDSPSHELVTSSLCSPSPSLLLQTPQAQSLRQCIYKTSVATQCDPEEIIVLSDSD

β-galactosidase expression, fold over the single-transformed colonies: 50 fold
Substance: Full-length PML linked to the Gal4 activation domain (pACT-2-PML) (from UniProt P29590 1-882) (natural protein)

Reference: publication PMC2195846
